# Results taken from paper PMC12784346, “Paratope mapping of tilvestamab, an anti-AXL function-blocking antibody, using high-throughput bacterial expression of secreted scFv-osmY fusion proteins” (Bioscience Reports, 2025).
# Target: T1, AXL Ig1 domain fused to human Fc (Homo sapiens, UniProt P30530)
# T1 construct: AXL receptor tyrosine kinase, human, Ig1 domain of the extracellular domain; Construct limits and production are in the Supplementary Information; also called AXL Ig1-Fc; AXL-Ig1-Fc
# Experiment: BLI; Octet RED96; His-tagged scFv-osmY captured on Ni-NTA tips from undiluted bacterial supernatant (600 s); AXL Ig1 domain Fc 5.6 ug/ml in kinetic buffer (0.02% Tween 20, 0.05% sodium azide, 0.1% BSA in PBS) as analyte; rat Axl-Fc as control; traces scored by eye (normal, fast, very fast, weak, weak fast, none)
# Details: one partner purified
row,binding result,Binder
1,binds,"tilvestamab scFv-osmY D32A (scFv, V domains shown, VH of tilvestamab, as the VH of m1; numbers count on: the scFv-osmY fusion protein; linker; VL of tilvestamab, as the VL of m1; source: E. coli T7 expression strain, secreted, culture supernatant used directly; not shown: His6, C-terminal, kept) VH: EVQLVESGGGLVQPGGSLRLSCAASGYSFTAFYINWVRQAPGKGLEWVARIFPGGDNTYYNEKFKGRFTLSADTSKSTAYLQMNSLRAEDTAVYYCARRGLYYAMDYWGQGTLVTVSS VL: DIQMTQSPSSLSASVGDRVTITCRSSQSLVHSNGIPYLHWYQQKPGKAPKLLIYRVSNRFSGVPSRFSGSGSGTDFTLTISSLQPEDFATYYCSQGTHVPPTFGQGTKVEIK"
2,binds,"tilvestamab scFv-osmY L102Y (scFv, V domains shown, VH of tilvestamab, as the VH of m1; numbers count on: the scFv-osmY fusion protein; linker; VL of tilvestamab, as the VL of m1; source: E. coli T7 expression strain, secreted, culture supernatant used directly; not shown: His6, C-terminal, kept) VH: EVQLVESGGGLVQPGGSLRLSCAASGYSFTDFYINWVRQAPGKGLEWVARIFPGGDNTYYNEKFKGRFTLSADTSKSTAYLQMNSLRAEDTAVYYCARRGYYYAMDYWGQGTLVTVSS VL: DIQMTQSPSSLSASVGDRVTITCRSSQSLVHSNGIPYLHWYQQKPGKAPKLLIYRVSNRFSGVPSRFSGSGSGTDFTLTISSLQPEDFATYYCSQGTHVPPTFGQGTKVEIK"
3,binds,"tilvestamab scFv-osmY G233S (scFv, V domains shown, VH of tilvestamab, as the VH of m1; linker; VL of tilvestamab, as the VL of m1; numbers count on: the scFv-osmY fusion protein; source: E. coli T7 expression strain, secreted, culture supernatant used directly; not shown: His6, C-terminal, kept) VH: EVQLVESGGGLVQPGGSLRLSCAASGYSFTDFYINWVRQAPGKGLEWVARIFPGGDNTYYNEKFKGRFTLSADTSKSTAYLQMNSLRAEDTAVYYCARRGLYYAMDYWGQGTLVTVSS VL: DIQMTQSPSSLSASVGDRVTITCRSSQSLVHSNGIPYLHWYQQKPGKAPKLLIYRVSNRFSGVPSRFSGSGSGTDFTLTISSLQPEDFATYYCSQSTHVPPTFGQGTKVEIK"
4,binds,"tilvestamab scFv-osmY I35A (scFv, V domains shown, VH of tilvestamab, as the VH of m1; numbers count on: the scFv-osmY fusion protein; linker; VL of tilvestamab, as the VL of m1; source: E. coli T7 expression strain, secreted, culture supernatant used directly; not shown: His6, C-terminal, kept) VH: EVQLVESGGGLVQPGGSLRLSCAASGYSFTDFYANWVRQAPGKGLEWVARIFPGGDNTYYNEKFKGRFTLSADTSKSTAYLQMNSLRAEDTAVYYCARRGLYYAMDYWGQGTLVTVSS VL: DIQMTQSPSSLSASVGDRVTITCRSSQSLVHSNGIPYLHWYQQKPGKAPKLLIYRVSNRFSGVPSRFSGSGSGTDFTLTISSLQPEDFATYYCSQGTHVPPTFGQGTKVEIK"
5,binds,"tilvestamab scFv-osmY G101A (scFv, V domains shown, VH of tilvestamab, as the VH of m1; numbers count on: the scFv-osmY fusion protein; linker; VL of tilvestamab, as the VL of m1; source: E. coli T7 expression strain, secreted, culture supernatant used directly; not shown: His6, C-terminal, kept) VH: EVQLVESGGGLVQPGGSLRLSCAASGYSFTDFYINWVRQAPGKGLEWVARIFPGGDNTYYNEKFKGRFTLSADTSKSTAYLQMNSLRAEDTAVYYCARRALYYAMDYWGQGTLVTVSS VL: DIQMTQSPSSLSASVGDRVTITCRSSQSLVHSNGIPYLHWYQQKPGKAPKLLIYRVSNRFSGVPSRFSGSGSGTDFTLTISSLQPEDFATYYCSQGTHVPPTFGQGTKVEIK"
6,binds,"tilvestamab scFv-osmY F33A (scFv, V domains shown, VH of tilvestamab, as the VH of m1; numbers count on: the scFv-osmY fusion protein; linker; VL of tilvestamab, as the VL of m1; source: E. coli T7 expression strain, secreted, culture supernatant used directly; not shown: His6, C-terminal, kept) VH: EVQLVESGGGLVQPGGSLRLSCAASGYSFTDAYINWVRQAPGKGLEWVARIFPGGDNTYYNEKFKGRFTLSADTSKSTAYLQMNSLRAEDTAVYYCARRGLYYAMDYWGQGTLVTVSS VL: DIQMTQSPSSLSASVGDRVTITCRSSQSLVHSNGIPYLHWYQQKPGKAPKLLIYRVSNRFSGVPSRFSGSGSGTDFTLTISSLQPEDFATYYCSQGTHVPPTFGQGTKVEIK"
7,binds,"tilvestamab scFv-osmY F53A (scFv, V domains shown, VH of tilvestamab, as the VH of m1; numbers count on: the scFv-osmY fusion protein; linker; VL of tilvestamab, as the VL of m1; source: E. coli T7 expression strain, secreted, culture supernatant used directly; not shown: His6, C-terminal, kept) VH: EVQLVESGGGLVQPGGSLRLSCAASGYSFTDFYINWVRQAPGKGLEWVARIAPGGDNTYYNEKFKGRFTLSADTSKSTAYLQMNSLRAEDTAVYYCARRGLYYAMDYWGQGTLVTVSS VL: DIQMTQSPSSLSASVGDRVTITCRSSQSLVHSNGIPYLHWYQQKPGKAPKLLIYRVSNRFSGVPSRFSGSGSGTDFTLTISSLQPEDFATYYCSQGTHVPPTFGQGTKVEIK"
8,binds,"tilvestamab scFv-osmY N195A (scFv, V domains shown, VH of tilvestamab, as the VH of m1; linker; VL of tilvestamab, as the VL of m1; numbers count on: the scFv-osmY fusion protein; source: E. coli T7 expression strain, secreted, culture supernatant used directly; not shown: His6, C-terminal, kept) VH: EVQLVESGGGLVQPGGSLRLSCAASGYSFTDFYINWVRQAPGKGLEWVARIFPGGDNTYYNEKFKGRFTLSADTSKSTAYLQMNSLRAEDTAVYYCARRGLYYAMDYWGQGTLVTVSS VL: DIQMTQSPSSLSASVGDRVTITCRSSQSLVHSNGIPYLHWYQQKPGKAPKLLIYRVSARFSGVPSRFSGSGSGTDFTLTISSLQPEDFATYYCSQGTHVPPTFGQGTKVEIK"
9,binds,"tilvestamab scFv-osmY Y103S (scFv, V domains shown, VH of tilvestamab, as the VH of m1; numbers count on: the scFv-osmY fusion protein; linker; VL of tilvestamab, as the VL of m1; source: E. coli T7 expression strain, secreted, culture supernatant used directly; not shown: His6, C-terminal, kept) VH: EVQLVESGGGLVQPGGSLRLSCAASGYSFTDFYINWVRQAPGKGLEWVARIFPGGDNTYYNEKFKGRFTLSADTSKSTAYLQMNSLRAEDTAVYYCARRGLSYAMDYWGQGTLVTVSS VL: DIQMTQSPSSLSASVGDRVTITCRSSQSLVHSNGIPYLHWYQQKPGKAPKLLIYRVSNRFSGVPSRFSGSGSGTDFTLTISSLQPEDFATYYCSQGTHVPPTFGQGTKVEIK"
10,binds,"tilvestamab scFv-osmY L102T (scFv, V domains shown, VH of tilvestamab, as the VH of m1; numbers count on: the scFv-osmY fusion protein; linker; VL of tilvestamab, as the VL of m1; source: E. coli T7 expression strain, secreted, culture supernatant used directly; not shown: His6, C-terminal, kept) VH: EVQLVESGGGLVQPGGSLRLSCAASGYSFTDFYINWVRQAPGKGLEWVARIFPGGDNTYYNEKFKGRFTLSADTSKSTAYLQMNSLRAEDTAVYYCARRGTYYAMDYWGQGTLVTVSS VL: DIQMTQSPSSLSASVGDRVTITCRSSQSLVHSNGIPYLHWYQQKPGKAPKLLIYRVSNRFSGVPSRFSGSGSGTDFTLTISSLQPEDFATYYCSQGTHVPPTFGQGTKVEIK"
11,binds,"tilvestamab scFv-osmY L102A (scFv, V domains shown, VH of tilvestamab, as the VH of m1; numbers count on: the scFv-osmY fusion protein; linker; VL of tilvestamab, as the VL of m1; source: E. coli T7 expression strain, secreted, culture supernatant used directly; not shown: His6, C-terminal, kept) VH: EVQLVESGGGLVQPGGSLRLSCAASGYSFTDFYINWVRQAPGKGLEWVARIFPGGDNTYYNEKFKGRFTLSADTSKSTAYLQMNSLRAEDTAVYYCARRGAYYAMDYWGQGTLVTVSS VL: DIQMTQSPSSLSASVGDRVTITCRSSQSLVHSNGIPYLHWYQQKPGKAPKLLIYRVSNRFSGVPSRFSGSGSGTDFTLTISSLQPEDFATYYCSQGTHVPPTFGQGTKVEIK"
